Laboratory results published in US7459543B2, “Modulators of antiestrogen pharmacology” (priority 2000, dated 2008).

T1: Progesterone Receptor β (PRβ) (Homo sapiens, UniProt P06401)
T1 sequence (P06401 1-933): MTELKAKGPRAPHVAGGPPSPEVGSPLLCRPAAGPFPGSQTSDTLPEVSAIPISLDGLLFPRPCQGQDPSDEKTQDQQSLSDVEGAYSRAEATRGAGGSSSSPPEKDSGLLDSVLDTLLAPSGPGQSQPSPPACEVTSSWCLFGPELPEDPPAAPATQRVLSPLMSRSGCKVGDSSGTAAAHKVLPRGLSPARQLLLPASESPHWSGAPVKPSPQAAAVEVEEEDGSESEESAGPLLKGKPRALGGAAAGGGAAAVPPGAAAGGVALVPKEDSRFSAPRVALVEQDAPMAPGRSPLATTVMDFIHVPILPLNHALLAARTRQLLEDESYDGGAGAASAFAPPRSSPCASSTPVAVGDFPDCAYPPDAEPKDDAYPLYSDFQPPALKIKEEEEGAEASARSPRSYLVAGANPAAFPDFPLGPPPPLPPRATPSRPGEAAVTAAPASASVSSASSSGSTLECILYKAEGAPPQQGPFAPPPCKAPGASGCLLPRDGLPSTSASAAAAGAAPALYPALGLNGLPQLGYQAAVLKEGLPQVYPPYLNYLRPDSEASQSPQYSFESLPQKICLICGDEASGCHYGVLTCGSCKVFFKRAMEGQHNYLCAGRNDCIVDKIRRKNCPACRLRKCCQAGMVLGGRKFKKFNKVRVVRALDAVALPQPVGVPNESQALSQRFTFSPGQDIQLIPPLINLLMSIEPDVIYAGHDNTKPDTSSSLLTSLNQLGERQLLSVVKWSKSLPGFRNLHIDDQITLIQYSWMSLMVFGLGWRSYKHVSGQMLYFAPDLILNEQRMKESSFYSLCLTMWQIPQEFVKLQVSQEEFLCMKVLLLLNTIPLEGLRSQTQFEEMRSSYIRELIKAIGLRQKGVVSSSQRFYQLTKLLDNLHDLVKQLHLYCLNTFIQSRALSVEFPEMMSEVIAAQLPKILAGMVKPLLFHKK

T2: estrogen receptor α (ERα) (Homo sapiens, UniProt P03372)
T2 construct: made in house
T2 sequence (P03372 1-595): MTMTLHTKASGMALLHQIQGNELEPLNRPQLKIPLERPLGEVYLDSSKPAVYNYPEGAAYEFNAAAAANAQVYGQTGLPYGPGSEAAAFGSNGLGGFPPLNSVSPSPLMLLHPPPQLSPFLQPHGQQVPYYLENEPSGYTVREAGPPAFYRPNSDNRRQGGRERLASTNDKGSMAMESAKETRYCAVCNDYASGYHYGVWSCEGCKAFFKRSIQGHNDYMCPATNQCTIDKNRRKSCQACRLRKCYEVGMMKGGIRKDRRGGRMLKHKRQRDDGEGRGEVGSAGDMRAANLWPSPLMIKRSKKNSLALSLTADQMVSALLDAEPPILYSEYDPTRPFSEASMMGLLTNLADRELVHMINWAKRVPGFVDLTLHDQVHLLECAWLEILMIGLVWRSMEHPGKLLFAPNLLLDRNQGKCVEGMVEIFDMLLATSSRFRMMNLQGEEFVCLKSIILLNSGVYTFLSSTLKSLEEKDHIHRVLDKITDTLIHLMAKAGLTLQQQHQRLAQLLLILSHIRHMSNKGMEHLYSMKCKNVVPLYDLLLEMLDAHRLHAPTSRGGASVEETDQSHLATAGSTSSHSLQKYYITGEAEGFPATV

B1: ERCoA3: 79 amino acid ER coactivator protein (SEQ. ID. NO. 2); used as GST fusion or expressed from vector (protein, listed as Homo sapiens)
chain: MCGRPRRVSAGCGFADAHWTGLWTGLGEGQEGGIGPEGQASPTPDCASRWPRSASRWPWSAGLTVRDRPQLGELCMGRG

Assays:
ERCoA3 = assay: Northern hybridization for ERCoA3 expression in MCF-7 cells; format: cell-based, human; settings: 10^-8 M, 24 h
Protocol: FIG. 8. ERCoA3 is expressed in cells that respond to tamoxifen as an agonist. (A) Total RNA was isolated from untreated parental MCF-7 cells (−), and cells treated for 24 h with 10^−8 M estradiol (E2) or 10^−8 M trans-hydroxytamoxifen (TOT), and tamoxifen resistant cells (TOT^R). (B) Total RNA was collected from untreated Hec cells and cells treated for 24 h with 10^−8 M estradiol (E2) or 10^−8 M trans-hydroxytamoxifen. Equal amounts (20 μg) of total RNA were separated by electrophoresis. Blots were probed with the random primer labeled ERCoA3 cDNA and 36B4 cDNA (to control for RNA loading).
It was determined whether there was increased expression of ERCoA3 in cells that were resistant to SERMs, specifically TOT. RNA was isolated from MCF-7 cells and also from tamoxifen-resistant (TOT^R) MCF-7 cells. Northern hybridization was performed using an ERCoA3 probe. These experiments indicated increased expression of ERCoA3 in TOT^R MCF-7 cells when compared to parental MCF-7 cells (FIG. 8A). […] Expression of ERCoA3 was also examined in another human cell line, human endometrium cancer cell line, HEC-1B.

[1] = system: ERα transcriptional activity; assay: (ERE)2-PS2-CAT reporter assay in MCF-7 cells; format: cell-based, human; settings: MCF-7 cells cotransfected with ERCoA3 vs cmv5 control; 10^-8 M E2 plus increasing TOT or ICI, 24 h
Protocol: FIG. 6. ERCoA3 attenuates the antiestrogenic effects of TOT and ICI on ERα transcriptional activity. MCF-7 cells were transfected with (ERE)2-PS2-CAT reporter construct. The cells were cotransfected with cmv5 control expression vector or expression vector for ERCoA3, as indicated. The cells were also transfected with a β-galactosidase internal control reporter to correct for transfection efficiency. Cells were then treated for 24 h with 10^−8 M estradiol (E2) and increasing concentration of trans-hydroxytamoxifen (TOT; panel A) or ICI 182,780 (ICI; panel B). Values are the means ±S.E. from three separate experiments.
Another very similar study examined the effect of ERCoA3 on the ability of TOT (FIG. 6A) and ICI (FIG. 6B) to block activation of ER. MCF-7 cells were transfected with a CAT reporter construct wherein transcription of the CAT gene was regulated by a estrogen-responsive element, or with both a CAT reporter construct and an expression vector for ERCoA3. The cells were then grown in TOT or ICI and CAT activity was assayed.

[2] = target: T1, Progesterone Receptor β (PRβ); assay: MMTV-CAT reporter assay in CHO cells transfected with PRβ; format: cell-based; parameters: expressed in transfected cells; host or cells: CHO cells; settings: CHO cells cotransfected with ERCoA3 vs cmv5 control; unliganded, 10^-8 M R5020 or RU-486, 24 h
Protocol: FIG. 7. ERCoA3 enhances partial agonist activity of RU-486. CHO cells were transfected with expression vectors for Progesterone Receptor β (PRβ) or reporter construct MMTV-CAT. The cells were cotransfected with cmv5 control expression vector or expression vector for ERCoA3 as indicated. The cells were also transfected with a β-galactosidase internal control reporter to correct for transfection efficiency. Cells were then treated for 24 h with 10^−8 M R5020 or RU-486. Values are the means ±S.E. from three separate experiments.
(§1) Somewhat different findings were made with Progesterone Receptor β (PRβ).

[3] = target: T1, Progesterone Receptor β (PRβ); assay: GST-ERCoA3 protein-protein interaction (pull-down) assay with [35S]-PRβ; format: binding; settings: vehicle, 10^-6 M R5020 or RU-486
Protocol: (§2) FIG. 4. ERCoA3 preferentially interacts with antagonist-bound ERα and PRβ. In vitro translated and [^35S]-methionine-labeled (A) Estrogen Receptor α (ERα) or (B) Progesterone Receptor β (PRβ) were incubated with GST alone or GST-ERCoA3 bound to Sepharose in the presence of vehicle, 10^−6 M Estradiol (E2), 10^−6 M trans-hydroxytamoxifen (TOT), 10^−6 M ICI 182,780 (ICI), 10^−6 M R5020, or 10^−6 M RU-486 as indicated. Bound protein was eluted with excess glutathione and analyzed by 12.5% SDS-polyacrylamide gel electrophoresis. The autoradiograph is representative of 3 separate experiments. Abbreviations: E2, 17-β estradiol; TOT, transhydroxytamoxifen; ICI, ICI182,780 (a pure ER antagonist); R5020, a synthetic PR agonist, and RU-486, a partial agonist of PRβ.
as §1

ERα = assay: (ERE)2-TATA-CAT reporter assay in CHO cells transfected with ERα; format: cell-based; settings: CHO cells cotransfected with ERCoA3 expression vector vs cmv5 control; estrogen, TOT or ICI, 24 h
Protocol: FIG. 5. ERCoA3 enhances partial agonist activity of antiestrogens. CHO cells were transfected with expression vectors for ERα and reporter construct (ERE)2-TATA-CAT. The cells were cotransfected with cmv5 control expression vector or expression vector for ERCoA3, as indicated. The cells were also transfected with a β-galactosidase internal control reporter to correct for transfection efficiency. Cells were then treated for 24 h with control vehicle or increasing concentrations of estradiol (E2), trans-hydroxytamoxifen (TOT) or ICI 182,780, as indicated. Values are the means ± S.E. from three separate experiments.
The ability of ERCoA3 to affect the response that a ligand has on ER was then tested. CHO cells were transfected with a CAT reporter construct wherein transcription of the CAT gene was regulated by a estrogen-responsive element, or with both a CAT reporter construct and an expression vector for ERCoA3. The cells were grown in either estrogen, TOT or ICI, and CAT activity was assayed.

[4] = target: T2, estrogen receptor α (ERα); assay: GST-ERCoA3 protein-protein interaction (pull-down) assay with [35S]-ERα; format: binding; settings: vehicle, 10^-6 M E2, TOT or ICI
Protocol: as §2
A protein-protein interaction assay was used in which the affinity matrix (i.e., bound to a column) was a glutathione-S-transferase (GST) fusion protein wherein GST was fused to ERCoA3. In vitro transcribed and translated [^35S]-ERα was retained by the GST-ERCoA3 affinity column preferentially in the presence of antiestrogens, trans-hydroxytamoxifen (TOT) and ICI182,780 (ICI) when compared to estradiol (E2) (FIG. 4A). ERα was not retained on the GST protein column without ERCoA3 (or GST alone).

Molecule	ERCoA3 expression (Northern) (ERCoA3)	activation of ER (CAT activity) in presence of TOT or ICI [1]	PRβ transcriptional activity [2]	interaction of ERCoA3 with PRβ [3]	CAT activity (activation of ER) (ERα)	retention of [35S]-ERα on GST-ERCoA3 affinity column [4]
C[C@]12CC[C@@H]3c4ccc(O)cc4CC[C@H]3[C@@H]1CC[C@@H]2O [E2, 17-β-estradiol]	Neither E2 nor TOT affected ERCoA3 expression					
trans-hydroxytamoxifen [TOT]	Neither E2 nor TOT affected ERCoA3 expression					
B1		increases activation of ER	enhanced the activity of both unliganded and RU-486-bound PRβ	interacted with both unliganded and antiprogestin- (RU-486, a partial agonist) bound PRβ	increased CAT activity	binds ER but binds ER better if ER are already bound to a partial agonist or antagonist
